Results taken from the supplement of paper PMC9112550, “Optimization of the antimicrobial peptide Bac7 by deep mutational scanning” (BMC Biology, 2022).

Test system: Escherichia coli TOP10
Assay: shrunken log2 fold change of peptide-encoding DNA abundance (4.5 h post-induction vs induction); higher = less antimicrobial activity (less host growth inhibition)
Conditions: time post-induction: 4.5 h; library: site-saturation at positions 5, 18, 19, 20
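Further: peptides expressed intracellularly from a pBAD plasmid library in pooled LB shake-flask culture, induced with 0.3% L-arabinose, DNA abundance read by NGS, three biological replicates, DESeq2 with apeglm shrinkage.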

Question: Which “shrunken log2 fold change” value does the source give for RRIRQRPPRLPRPRPRPTPYPRP here?
Answer: The value was -0.266.

Question: Which “shrunken log2 fold change” value does the source give for RRIRQRPPRLPRPRPRPTQEPRP here?
Answer: Its value is 0.124.

Question: How did the “shrunken log2 fold change” value turn out when RRIRQRPPRLPRPRPRPTRLPRP was run?
Answer: Its value is 0.723.

Question: How did the “shrunken log2 fold change” value turn out when RRIRQRPPRLPRPRPRPTRVPRP was run?
Answer: Its value is 0.305.

Question: RRIRQRPPRLPRPRPRPTSFPRP was tested. Which “shrunken log2 fold change” value did it give?
Answer: Its value is -0.0413.

Question: RRIRQRPPRLPRPRPRPTTHPRP was tested. Which “shrunken log2 fold change” value did it give?
Answer: The value was 0.00963.

Question: With RRIRQRPPRLPRPRPRPTTPPRP as the sequence, how does the “shrunken log2 fold change” value read?
Answer: Its value is 0.402.

Question: RRIRQRPPRLPRPRPRPTVGPRP was tested. Which “shrunken log2 fold change” value did it give?
Answer: Its value is -0.161.

Question: RRIRQRPPRLPRPRPRPTWCPRP was tested. Which “shrunken log2 fold change” value did it give?
Answer: The value was 0.171.

Question: How did the “shrunken log2 fold change” value turn out when RRIRQRPPRLPRPRPRPTWRPRP was run?
Answer: Its value is 0.345.

Question: How did the “shrunken log2 fold change” value turn out when RRIRQRPPRLPRPRPRPTWSPRP was run?
Answer: Its value is 0.136.

Question: With RRIRQRPPRLPRPRPRPTYEPRP as the sequence, how does the “shrunken log2 fold change” value read?
Answer: Its value is -0.0761.

Question: For RRIRQRPPRLPRPRPRPTYTPRP, which “shrunken log2 fold change” value is on record?
Answer: Its value is -0.346.

Question: How did the “shrunken log2 fold change” value turn out when RRIRQRPPRLPRPRPRPVAKPRP was run?
Answer: The value was 0.2.

Question: RRIRQRPPRLPRPRPRPVAQPRP was tested. Which “shrunken log2 fold change” value did it give?
Answer: The value was 0.24.

Question: For RRIRQRPPRLPRPRPRPVCAPRP, which “shrunken log2 fold change” value is on record?
Answer: The value was 0.118.

Question: With RRIRQRPPRLPRPRPRPVDNPRP as the sequence, how does the “shrunken log2 fold change” value read?
Answer: Its value is 0.0335.

Question: Which “shrunken log2 fold change” value does the source give for RRIRQRPPRLPRPRPRPVDRPRP here?
Answer: Its value is -0.0864.

Question: For RRIRQRPPRLPRPRPRPVDWPRP, which “shrunken log2 fold change” value is on record?
Answer: The value was 0.39.

Question: Which “shrunken log2 fold change” value does the source give for RRIRQRPPRLPRPRPRPVECPRP here?
Answer: Its value is 0.0104.

Question: Which “shrunken log2 fold change” value does the source give for RRIRQRPPRLPRPRPRPVEGPRP here?
Answer: The value was 0.294.

Question: For RRIRQRPPRLPRPRPRPVENPRP, which “shrunken log2 fold change” value is on record?
Answer: Its value is -0.0501.

Question: How did the “shrunken log2 fold change” value turn out when RRIRQRPPRLPRPRPRPVERPRP was run?
Answer: Its value is -0.0839.

Question: With RRIRQRPPRLPRPRPRPVFGPRP as the sequence, how does the “shrunken log2 fold change” value read?
Answer: Its value is 0.13.

Question: With RRIRQRPPRLPRPRPRPVFNPRP as the sequence, how does the “shrunken log2 fold change” value read?
Answer: The value was -0.291.

Question: Which “shrunken log2 fold change” value does the source give for RRIRQRPPRLPRPRPRPVFSPRP here?
Answer: Its value is -0.192.

Question: With RRIRQRPPRLPRPRPRPVGDPRP as the sequence, how does the “shrunken log2 fold change” value read?
Answer: The value was 0.203.

Question: Which “shrunken log2 fold change” value does the source give for RRIRQRPPRLPRPRPRPVHAPRP here?
Answer: Its value is 0.0261.

Question: How did the “shrunken log2 fold change” value turn out when RRIRQRPPRLPRPRPRPVIIPRP was run?
Answer: The value was -1.01.

Question: RRIRQRPPRLPRPRPRPVIYPRP was tested. Which “shrunken log2 fold change” value did it give?
Answer: The value was -0.0661.

Question: RRIRQRPPRLPRPRPRPVKHPRP was tested. Which “shrunken log2 fold change” value did it give?
Answer: The value was -0.629.

Question: How did the “shrunken log2 fold change” value turn out when RRIRQRPPRLPRPRPRPVKTPRP was run?
Answer: Its value is 0.139.

Question: Which “shrunken log2 fold change” value does the source give for RRIRQRPPRLPRPRPRPVLTPRP here?
Answer: Its value is 0.0694.

Question: RRIRQRPPRLPRPRPRPVNSPRP was tested. Which “shrunken log2 fold change” value did it give?
Answer: The value was -0.0167.

Question: How did the “shrunken log2 fold change” value turn out when RRIRQRPPRLPRPRPRPVPAPRP was run?
Answer: The value was 0.475.

Question: With RRIRQRPPRLPRPRPRPVQHPRP as the sequence, how does the “shrunken log2 fold change” value read?
Answer: The value was -0.0755.

Question: Which “shrunken log2 fold change” value does the source give for RRIRQRPPRLPRPRPRPVQTPRP here?
Answer: Its value is -0.0915.

Question: With RRIRQRPPRLPRPRPRPVRLPRP as the sequence, how does the “shrunken log2 fold change” value read?
Answer: The value was -0.0825.

Question: For RRIRQRPPRLPRPRPRPVSIPRP, which “shrunken log2 fold change” value is on record?
Answer: The value was 0.0429.

Question: For RRIRQRPPRLPRPRPRPVTTPRP, which “shrunken log2 fold change” value is on record?
Answer: Its value is 0.0606.

Question: For RRIRQRPPRLPRPRPRPVVDPRP, which “shrunken log2 fold change” value is on record?
Answer: The value was -0.355.

Question: With RRIRQRPPRLPRPRPRPVVWPRP as the sequence, how does the “shrunken log2 fold change” value read?
Answer: Its value is 0.586.

Question: For RRIRQRPPRLPRPRPRPVYFPRP, which “shrunken log2 fold change” value is on record?
Answer: Its value is -0.446.

Question: For RRIRQRPPRLPRPRPRPVYKPRP, which “shrunken log2 fold change” value is on record?
Answer: Its value is -0.612.

Question: RRIRQRPPRLPRPRPRPWCSPRP was tested. Which “shrunken log2 fold change” value did it give?
Answer: Its value is -0.0146.

Question: For RRIRQRPPRLPRPRPRPWETPRP, which “shrunken log2 fold change” value is on record?
Answer: Its value is -0.00136.

Question: How did the “shrunken log2 fold change” value turn out when RRIRQRPPRLPRPRPRPWFHPRP was run?
Answer: Its value is 0.00902.

Question: For RRIRQRPPRLPRPRPRPWHCPRP, which “shrunken log2 fold change” value is on record?
Answer: The value was -0.0682.

Question: RRIRQRPPRLPRPRPRPWHGPRP was tested. Which “shrunken log2 fold change” value did it give?
Answer: Its value is 0.0373.

Question: For RRIRQRPPRLPRPRPRPWHHPRP, which “shrunken log2 fold change” value is on record?
Answer: The value was -0.00612.

Question: RRIRQRPPRLPRPRPRPWHRPRP was tested. Which “shrunken log2 fold change” value did it give?
Answer: The value was -0.0346.

Question: For RRIRQRPPRLPRPRPRPWKPPRP, which “shrunken log2 fold change” value is on record?
Answer: Its value is -0.00884.

Question: RRIRQRPPRLPRPRPRPWMGPRP was tested. Which “shrunken log2 fold change” value did it give?
Answer: Its value is 0.063.

Question: Which “shrunken log2 fold change” value does the source give for RRIRQRPPRLPRPRPRPWNAPRP here?
Answer: Its value is 0.00391.

Question: RRIRQRPPRLPRPRPRPWPCPRP was tested. Which “shrunken log2 fold change” value did it give?
Answer: Its value is -0.0164.

Question: For RRIRQRPPRLPRPRPRPWPRPRP, which “shrunken log2 fold change” value is on record?
Answer: Its value is 0.014.

Question: With RRIRQRPPRLPRPRPRPWQWPRP as the sequence, how does the “shrunken log2 fold change” value read?
Answer: The value was -0.133.

Question: RRIRQRPPRLPRPRPRPWRIPRP was tested. Which “shrunken log2 fold change” value did it give?
Answer: Its value is -0.416.

Question: RRIRQRPPRLPRPRPRPWRRPRP was tested. Which “shrunken log2 fold change” value did it give?
Answer: The value was 0.241.

Question: Which “shrunken log2 fold change” value does the source give for RRIRQRPPRLPRPRPRPWSQPRP here?
Answer: Its value is 0.0535.

Question: For RRIRQRPPRLPRPRPRPWTYPRP, which “shrunken log2 fold change” value is on record?
Answer: The value was 0.0804.

Question: Which “shrunken log2 fold change” value does the source give for RRIRQRPPRLPRPRPRPWVDPRP here?
Answer: Its value is 0.0234.

Question: RRIRQRPPRLPRPRPRPWWIPRP was tested. Which “shrunken log2 fold change” value did it give?
Answer: The value was -0.185.

Question: How did the “shrunken log2 fold change” value turn out when RRIRQRPPRLPRPRPRPWYPPRP was run?
Answer: Its value is -0.278.

Question: For RRIRQRPPRLPRPRPRPYDLPRP, which “shrunken log2 fold change” value is on record?
Answer: The value was -0.0546.

Question: How did the “shrunken log2 fold change” value turn out when RRIRQRPPRLPRPRPRPYEEPRP was run?
Answer: Its value is -0.434.

Question: How did the “shrunken log2 fold change” value turn out when RRIRQRPPRLPRPRPRPYFMPRP was run?
Answer: The value was -0.89.

Question: For RRIRQRPPRLPRPRPRPYFQPRP, which “shrunken log2 fold change” value is on record?
Answer: Its value is -0.428.

Question: RRIRQRPPRLPRPRPRPYHYPRP was tested. Which “shrunken log2 fold change” value did it give?
Answer: The value was -0.711.

Question: With RRIRQRPPRLPRPRPRPYITPRP as the sequence, how does the “shrunken log2 fold change” value read?
Answer: Its value is -0.0324.

Question: For RRIRQRPPRLPRPRPRPYIYPRP, which “shrunken log2 fold change” value is on record?
Answer: Its value is -0.0737.

Question: With RRIRQRPPRLPRPRPRPYLNPRP as the sequence, how does the “shrunken log2 fold change” value read?
Answer: The value was -0.329.

Question: Which “shrunken log2 fold change” value does the source give for RRIRQRPPRLPRPRPRPYNFPRP here?
Answer: Its value is -0.0266.

Question: RRIRQRPPRLPRPRPRPYPWPRP was tested. Which “shrunken log2 fold change” value did it give?
Answer: Its value is -0.266.

Question: For RRIRQRPPRLPRPRPRPYTFPRP, which “shrunken log2 fold change” value is on record?
Answer: Its value is -0.0307.
